According to US7244826B1, “Internalizing ERB2 antibodies” (The Regents of the University of California, priority 1998, dated 2007):
Entries after “also recorded” stand apart in the source; their conditions may differ. Where two headings read alike, the source gives them in different places.

What was measured:
[1] = target: ErbB2 on cells (SKBR3, SK-OV-3, MCF7 tumor cell lines) (UniProt P04626); experiment: cell-based or functional assay
[2] = target: ErbB2 on cells (SKBR3, SK-OV-3, MCF7 tumor cell lines) (UniProt P04626); experiment: 5.0 × 10^11 phage on about 1.0 × 10^5 SKBR3 cells at 37° C.; surface bound phage eluted with low pH glycine, titered on E. coli TG1
SKBR3 cells [3] = assay type: cell-based
SKBR3 cells [4] = assay type: cell-based; remark: listed apart in the source
SK-OV-3 cells [5] = details: in vitro; cited from earlier work
tumor = details: cited from earlier work
[6] = target: ErbB2 on cells (SKBR3, SK-OV-3, MCF7 tumor cell lines) (UniProt P04626)
[7] = target: T1, ErbB2 (form in the assay not stated) (UniProt P04626 23-1255); experiment: method and form of ErbB2 not stated
T1 construct: also called c-erbB2

SKBR3 cells [8] = experiment: Staining of SKBR3 cells by phage antibodies or native scFv; details: high ErbB2 expression; for staining of SKBR3 cells by phage antibody: phage-displayed
[9] = tested on: normal breast cell line HST578; experiment: Staining of normal breast cell line by phage antibodies or native scFv; assay type: cell-based
MCF7 cells = experiment: Staining of MCF7 cells by phage antibodies or native scFv; assay type: cell-based; details: low ErbB2 expression
SK-OV-3 cells [10] = experiment: Staining of SK-OV-3 cells by native scFv; assay type: cell-based; details: moderate ErbB2 expression
ErbB2 = ErbB2 (Homo sapiens, UniProt P04626); experiment: Epitope mapping competition assay: inhibition of phage binding by soluble scFv
Text: Bound phages were detected with an anti-M13 biotinylated Ab and streptavidin-PE.
Neither of these phage were isolated when the same library was selected on recombinant ErbB2. […] This was confirmed using a competition assay (FIG. 2).

[11] = Gel filtration of native scFv; assay type: physicochemical
[12] = increasing concentrations of soluble scFv, bound phage by anti-M13 biotinylated Ab and streptavidin-PE, MFI

With C6.5 diabody phage as the molecule, how does the cells that had internalized phage (confocal microscopy, SKBR3 cells) [1] read?
The cells that had internalized phage (confocal microscopy, SKBR3 cells) was 20%.

And the phage titer, Lysed cell fraction (internalized phage) [1]?
Its phage titer, Lysed cell fraction (internalized phage) is 1.7e+07.

And the titer of cell surface bound phage, 1st glycine wash [2]?
Its titer of cell surface bound phage, 1st glycine wash is 1.8e+07.

And the titer of cell surface bound phage, 2nd glycine wash [2]?
Its titer of cell surface bound phage, 2nd glycine wash is 2.8e+06.

With “C6.5 diabody: dimeric scFv from C6.5 V-genes, linker between VH and VL shortened from 15 to 5 amino acids” as the molecule, how does the “cells that had internalized phage” value (SKBR3 cells [3]; 37° C.) read?
The value was ~20%.

And the “increase of titer after cell lysis from the second glycine wash” value (SKBR3 cells [4])?
Its value is > 50 fold.

What about the “more phage bound to the cell surface than the anti-Botulinum phage” value (SKBR3 cells [4]) of the same molecule?
Its value is 30 times.

And the “phage titer, 1st glycine wash” value (SKBR3 cells [4])?
Its value is 1.8 × 10^7.

What about the “phage titer, 2nd glycine wash” value (SKBR3 cells [4]) of the same molecule?
Its value is 2.8 × 10^6.

And the “phage titer, lysed cell fraction” value (SKBR3 cells [4])?
Its value is 1.7 × 10^7.

What about the “recovery of phage from inside the cell, higher than for anti-Botulinum phage” value (SKBR3 cells [4]) of the same molecule?
The value was 200 fold.

What about the “apparent affinity compared to C6.5 scFv” value (SK-OV-3 cells [5]) of the same molecule?
The value was “significantly higher”.

What about the “% ID/g tumor” value (tumor; at 24 hours, diabody study) of the same molecule?
Its value is 6.5 % ID/g.

What about the “tumor:organ AUC ratios” value (tumor; retentions examined over 72 hours, cumulative AUC) of the same molecule?
Its value is “greater than reported for other monovalent or divalent scFv molecules”.

Which results are given for “C6.5 phage (anti-ErbB2 C6.5 scFv displayed on phage)”?
phage titer, Lysed cell fraction (internalized phage) [1]: 6.8e+07; titer of cell surface bound phage, 1st glycine wash [2]: 1.2e+07; titer of cell surface bound phage, 2nd glycine wash [2]: 5.2e+06

With irrelevant anti-Botulinum phage (scFv) as the molecule, how does the phage titer, Lysed cell fraction (internalized phage) [1] read?
Its phage titer, Lysed cell fraction (internalized phage) is 600000.

What about the titer of cell surface bound phage, 1st glycine wash [6] of the same molecule?
The titer of cell surface bound phage, 1st glycine wash was 600000.

What about the titer of cell surface bound phage, 2nd glycine wash [6] of the same molecule?
The titer of cell surface bound phage, 2nd glycine wash was 100000.

B1: F5 scFv (native purified soluble scFv) (scFv, not shown: small tags and cut ends)
scFv: QVQLVESGGGLVQPGGSLRLSCAASGFTFRSYAMSWVRQAPGKGLEWVSAISGRGDNTYYADSVKGRFTISRDNSKNTLYLQMNSLRAEDTAVYYCAKMTSNAFAFDYWGQGTLVTVSSGGGGSGGGGSGGGGSQSVLTQPPSVSGAPGQRVTISCTGSSSNIGAGYGVHWYQQLPGTAPKLLIYGNTNRPSGVPDRFSGFKSGTSASLAITGLQAEDEADYYCQFYDSSLSGWVFGGGTKLTVLG
notes: also called 3TF5; scFv-F5
With B1 as the molecule, how does the Kd [7] read?
Its Kd is 320 nM.

B2: F5: internalizing human anti-c-erbB-2 scFv, SEQ ID NO: 1, ATCC plasmid deposit PTA-7843, also referred to as 3TF5 (protein)
scFv: B1 scFv
With B2 as the molecule, how does the “staining of SKBR3 cells by native purified scFv” value (SKBR3 cells [8]; native purified scFv) read?
Its value is “intensely stain”.

What about the “staining of SKBR3 cells by phage antibody” value (SKBR3 cells [8]) of the same molecule?
Its value is “intensely stain”.

And the “staining of SKBR3 cells by phage antibody” value (SKBR3 cells [8]; listed as 3TF5 phage)?
Its value is “more intensely than C6.5 phage”.

And the “staining of normal breast cell line HST578 by native purified scFv” value [9]?
Its value is “do not stain”.

And the “staining of MCF7 cells by native purified scFv” value (MCF7 cells; native purified scFv)?
The value was “minimal staining”.

What about the “staining of MCF7 cells by phage antibody” value (MCF7 cells; phage-displayed) of the same molecule?
Its value is “much more intensely then C6.5”.

What about the “internalization of native purified scFv by SKBR3 cells (in words)” value (SKBR3 cells [3]) of the same molecule?
The value was “efficiently internalized; also recorded: internalized faster than C6.5”.

What about the “internalization of phage by SKBR3 cells at 4° C. (in words)” value (SKBR3 cells [3]) of the same molecule?
The value was “no internalization”.

What about the “cells that had internalized phage” value (SKBR3 cells [3]; 37° C.) of the same molecule?
The value was “greater than 95%”.

And the “internalization of phage by SKBR3 cells (in words)” value (SKBR3 cells [3]; 37° C.)?
The value was “internalized”.

What about the “staining of SK-OV-3 cells by native purified scFv” value (SK-OV-3 cells [10]) of the same molecule?
The value was “intermediate staining”.

What about the “epitope of F5 and C1 relative to each other” value (ErbB2; competition assay) of the same molecule?
Its value is “recognize the same epitope”.

What about the “epitope relative to C6.5” value (ErbB2; competition assay) of the same molecule?
Its value is “a different epitope than C6.5”.

And the “epitope relative to Genentech anti-ErbB2 antibody 4D5” value (ErbB2; competition assay)?
The value was “recognize a different epitope”.

And the “inhibition of binding of C6.5 phage by soluble scFv” value (ErbB2; [12])?
The value was “not”.

And the “inhibition of binding of F5 or C1 phage by soluble scFv” value (ErbB2; [12])?
The value was “inhibited”.

And the “oligomeric state by gel filtration” value [11]?
The value was “only as a monomer with no appreciable dimerization or aggregation”.
